Test results from publication PMC7771244.

Experiments:
[1] = biological target: 5FW-BPTF (bromodomain of the bromodomain- and PHD finger-containing transcription factor, labelled with 5-fluorotryptophan) (human); experiment: NMR titration
[2] = biological target: 5FW-labeled BRD2(2) (second bromodomain of BRD2) (human); experiment: NMR titration
[3] = biological target: 5FW-labeled BRD4(2) (second bromodomain of BRD4) (human) (UniProt O60885); experiment: NMR titration
[4] = biological target: 5FW-CECR2 (bromodomain of CECR2, labelled with 5-fluorotryptophan) (human); experiment: NMR titration
[5] = biological target: His9-tagged BPTF bromodomain (human); experiment: AlphaScreen or HTRF
[6] = biological target: GST-BPTF (glutathione S-transferase-tagged BPTF, not labeled with fluorine) (human); experiment: SPR

Kd [1] [µM] | Substance | other results
780 | H2A.Z I K4ac,K13ac N-terminal tail peptide | –
630 | H2A.Z I K4ac,K15ac N-terminal tail peptide | –
520 | H2A.Z I K7ac,K13ac N-terminal tail peptide | Kd [2]: 680 µM; fold higher affinity than for H2A.Z II K7ac,K13ac [2]: 2 fold; fold higher affinity than for H2A.Z II K7ac,K13ac [3]: 2 fold; Kd [4]: 130 µM
1440 | H2A.Z I K11ac,K13ac N-terminal tail peptide | –
660 | H2A.Z II K4ac,K7ac N-terminal tail peptide | –
760 | H2A.Z II K4ac,K11ac N-terminal tail peptide | –
790 | H2A.Z II K4ac,K13ac N-terminal tail peptide | –
430 | H2A.Z II K4ac,K15ac N-terminal tail peptide | –
780 | H2A.Z II K7ac,K11ac N-terminal tail peptide | –
310 | H2A.Z II K7ac,K13ac N-terminal tail peptide | IC50 [5]: 830 µM; Kd [6]: 195 µM
790 | H2A.Z II K11ac,K13ac N-terminal tail peptide | –
